Test results: patent US20140087995A1 (published 2014)
Each block holds one binder with its values, some of them ahead of it. Numbered stars: 1 amine (or outer) side, 2 acyl side, 3 side chain; on linkers, the order of the positions; unused ones are H or OH. Bridge positions count the residues as written; N and C are the ends. Side chains are listed from the residue outwards. Ends that are not written are not given here. * marks the point of attachment. C20 diacid = O=C(O)CCCCCCCCCCCCCCCCCCC(=O)*; γGlu = O=C(O)[C@H](CCC(=O)[*:2])N[*:1]

Target: T1, human amylin receptor (Amylin 3(a) receptor: human calcitonin receptor co-expressed with RAMP-3) (human, UniProt P30988 25-474; O60896 24-148, limits assumed)
T1 construct: whole, on cells; Used as cell membranes prepared from the Amylin 3(a)/CRE-luc BHK cells (Assay V); the complex is called the human amylin receptor; also called hAmylin-R; hAmylinR
T1 sequence (looked up) 1: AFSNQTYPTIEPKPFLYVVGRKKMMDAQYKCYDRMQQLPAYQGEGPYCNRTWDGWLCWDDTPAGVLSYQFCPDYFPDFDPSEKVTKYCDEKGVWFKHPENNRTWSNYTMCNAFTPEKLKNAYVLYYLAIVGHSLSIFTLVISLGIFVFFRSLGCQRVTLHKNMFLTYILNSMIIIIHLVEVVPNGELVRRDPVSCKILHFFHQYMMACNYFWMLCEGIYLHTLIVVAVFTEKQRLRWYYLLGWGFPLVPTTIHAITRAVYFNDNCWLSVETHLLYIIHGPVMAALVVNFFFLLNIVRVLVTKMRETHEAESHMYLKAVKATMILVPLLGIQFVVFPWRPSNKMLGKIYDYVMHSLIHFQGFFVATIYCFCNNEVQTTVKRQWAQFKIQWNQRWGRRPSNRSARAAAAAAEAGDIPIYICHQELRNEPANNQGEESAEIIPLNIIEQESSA
T1 sequence (looked up) 2: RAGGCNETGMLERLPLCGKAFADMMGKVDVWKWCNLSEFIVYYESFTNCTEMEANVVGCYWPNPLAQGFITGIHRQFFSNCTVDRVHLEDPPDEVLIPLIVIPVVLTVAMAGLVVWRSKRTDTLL
Test: SPA competition binding, displacement of 125I-rat amylin from membranes of BHK cells with human calcitonin receptor + RAMP-3 (Assay V)
Description: The binding assay was performed using scintillation proximity assay (SPA) beads (RPNQ0001) from PerkinElmer and cell membranes from the Amylin 3(a)/CRE-luc cells (as described in Assay (II)) were used. Membranes were prepared in the following way; the cells were rinsed with PBS and incubated with Versene for approximately 5 min before harvesting. The cells were flushed with PBS and the cell-suspension was centrifuged for 5 min at 1000 rpm. Cells were homogenized (ultrathurrax) in a buffer containing 20 mM Na-HEPES and 10 mM EDTA (pH 7.4) and centrifuged at 20.000 rpm for 15 min. The resulting pellet was resuspended, homogenized and centrifuged (20.000 rpm, 15 min) in a buffer containing 20 mM Na-HEPES and 0.1 mM EDTA (pH 7.4, buffer 2). The resulting pellet was resuspended in buffer 2 and protein concentration was measured (BCA protein Assay, Pierce). The homogenate was kept cold during the whole procedure. The membranes were kept at −80° C. until use. The assay was performed in a 384 well Optiplate (PerkinElmer) in a total volume of 40 ul. Membranes were mixed with SPA beads. Final concentration of membranes 35 ng/μL final and SPA beads was 0.05 mg/well. Test-compounds were dissolved in DMSO and further diluted in assay buffer (50 mM Hepes, pH 7.4, 1 mM CaCl2, 5 mM MgCl₂, 0.1% OA and 0.02% Tween20). […] The final mixture was incubated with shaking at 400 rpm for 120 min at 25° C. prior to centrifugation (1500 rpm, 10 min). Samples were analyzed on TopCounter™ (Packard). The IC₅₀ was calculated using (one site binding competition analysis) GraphPad Prism5 as a measure of receptor affinity.

IC50: 0.232 nM
B1: N^ε1-[(4S)-4-carboxy-4-(19-carboxynonadecanoylamino)butanoyl]-[Glu14,Arg17,Pro21,Pro27,Arg34,Glu35]-h-amylin (peptide)
peptide: K([γGlu-C20 diacid])CNTATCATQRLAEFLRHSSPNFGAIPSSTNVGRETY-NH2
modifications: disulfide 2-7; N-terminus assumed
SMILES: CC[C@H](C)[C@H](NC(=O)[C@H](C)NC(=O)CNC(=O)[C@H](Cc1ccccc1)NC(=O)[C@H](CC(N)=O)NC(=O)[C@@H]1CCCN1C(=O)[C@H](CO)NC(=O)[C@H](CO)NC(=O)[C@H](Cc1c[nH]cn1)NC(=O)[C@H](CCCNC(=N)N)NC(=O)[C@H](CC(C)C)NC(=O)[C@H](Cc1ccccc1)NC(=O)[C@H](CCC(=O)O)NC(=O)[C@H](C)NC(=O)[C@H](CC(C)C)NC(=O)[C@H](CCCNC(=N)N)NC(=O)[C@H](CCC(N)=O)NC(=O)[C@@H](NC(=O)[C@H](C)NC(=O)[C@@H]1CSSC[C@H](NC(=O)[C@@H](N)CCCCNC(=O)CC[C@H](NC(=O)CCCCCCCCCCCCCCCCCCC(=O)O)C(=O)O)C(=O)N[C@@H](CC(N)=O)C(=O)N[C@@H]([C@@H](C)O)C(=O)N[C@@H](C)C(=O)N[C@@H]([C@@H](C)O)C(=O)N1)[C@@H](C)O)C(=O)N1CCC[C@H]1C(=O)N[C@@H](CO)C(=O)N[C@@H](CO)C(=O)N[C@H](C(=O)N[C@@H](CC(N)=O)C(=O)N[C@H](C(=O)NCC(=O)N[C@@H](CCCNC(=N)N)C(=O)N[C@@H](CCC(=O)O)C(=O)N[C@H](C(=O)N[C@@H](Cc1ccc(O)cc1)C(N)=O)[C@@H](C)O)C(C)C)[C@@H](C)O
notes: modifications are with respect to human amylin

IC50: 0.163 nM
B2: N^ε1-[(4S)-4-carboxy-4-(19-carboxynonadecanoylamino)butanoyl]-[Glu14,Arg17,Pro21,Pro27,Pro34,Arg35]-h-amylin (peptide)
peptide: K([γGlu-C20 diacid])CNTATCATQRLAEFLRHSSPNFGAIPSSTNVGPRTY-NH2
modifications: disulfide 2-7; N-terminus assumed
SMILES: CC[C@H](C)[C@H](NC(=O)[C@H](C)NC(=O)CNC(=O)[C@H](Cc1ccccc1)NC(=O)[C@H](CC(N)=O)NC(=O)[C@@H]1CCCN1C(=O)[C@H](CO)NC(=O)[C@H](CO)NC(=O)[C@H](Cc1c[nH]cn1)NC(=O)[C@H](CCCNC(=N)N)NC(=O)[C@H](CC(C)C)NC(=O)[C@H](Cc1ccccc1)NC(=O)[C@H](CCC(=O)O)NC(=O)[C@H](C)NC(=O)[C@H](CC(C)C)NC(=O)[C@H](CCCNC(=N)N)NC(=O)[C@H](CCC(N)=O)NC(=O)[C@@H](NC(=O)[C@H](C)NC(=O)[C@@H]1CSSC[C@H](NC(=O)[C@@H](N)CCCCNC(=O)CC[C@H](NC(=O)CCCCCCCCCCCCCCCCCCC(=O)O)C(=O)O)C(=O)N[C@@H](CC(N)=O)C(=O)N[C@@H]([C@@H](C)O)C(=O)N[C@@H](C)C(=O)N[C@@H]([C@@H](C)O)C(=O)N1)[C@@H](C)O)C(=O)N1CCC[C@H]1C(=O)N[C@@H](CO)C(=O)N[C@@H](CO)C(=O)N[C@H](C(=O)N[C@@H](CC(N)=O)C(=O)N[C@H](C(=O)NCC(=O)N1CCC[C@H]1C(=O)N[C@@H](CCCNC(=N)N)C(=O)N[C@H](C(=O)N[C@@H](Cc1ccc(O)cc1)C(N)=O)[C@@H](C)O)C(C)C)[C@@H](C)O
notes: as for B1

IC50: 0.992 nM
B3: N^ε1-[(4S)-4-carboxy-4-(19-carboxynonadecanoylamino)butanoyl]-[Glu14,Arg17,Pro21,Pro27,His35]-h-amylin (peptide)
peptide: K([γGlu-C20 diacid])CNTATCATQRLAEFLRHSSPNFGAIPSSTNVGSHTY-NH2
modifications: disulfide 2-7; N-terminus assumed
SMILES: CC[C@H](C)[C@H](NC(=O)[C@H](C)NC(=O)CNC(=O)[C@H](Cc1ccccc1)NC(=O)[C@H](CC(N)=O)NC(=O)[C@@H]1CCCN1C(=O)[C@H](CO)NC(=O)[C@H](CO)NC(=O)[C@H](Cc1c[nH]cn1)NC(=O)[C@H](CCCNC(=N)N)NC(=O)[C@H](CC(C)C)NC(=O)[C@H](Cc1ccccc1)NC(=O)[C@H](CCC(=O)O)NC(=O)[C@H](C)NC(=O)[C@H](CC(C)C)NC(=O)[C@H](CCCNC(=N)N)NC(=O)[C@H](CCC(N)=O)NC(=O)[C@@H](NC(=O)[C@H](C)NC(=O)[C@@H]1CSSC[C@H](NC(=O)[C@@H](N)CCCCNC(=O)CC[C@H](NC(=O)CCCCCCCCCCCCCCCCCCC(=O)O)C(=O)O)C(=O)N[C@@H](CC(N)=O)C(=O)N[C@@H]([C@@H](C)O)C(=O)N[C@@H](C)C(=O)N[C@@H]([C@@H](C)O)C(=O)N1)[C@@H](C)O)C(=O)N1CCC[C@H]1C(=O)N[C@@H](CO)C(=O)N[C@@H](CO)C(=O)N[C@H](C(=O)N[C@@H](CC(N)=O)C(=O)N[C@H](C(=O)NCC(=O)N[C@@H](CO)C(=O)N[C@@H](Cc1c[nH]cn1)C(=O)N[C@H](C(=O)N[C@@H](Cc1ccc(O)cc1)C(N)=O)[C@@H](C)O)C(C)C)[C@@H](C)O
notes: as for B1

IC50: 0.179 nM
B4: N^ε1-[(4S)-4-carboxy-4-(19-carboxynonadecanoylamino)butanoyl]-[Glu14,Arg17,Pro21,Pro27,Pro34,His35]-h-amylin (peptide)
peptide: K([γGlu-C20 diacid])CNTATCATQRLAEFLRHSSPNFGAIPSSTNVGPHTY-NH2
modifications: disulfide 2-7
notes: as for B1

IC50: 0.387 nM
B5: N^ε1-[(4S)-4-carboxy-4-(19-carboxynonadecanoylamino)butanoyl]-[Glu14,Arg17,Pro21,Pro27,His34,Glu35]-h-amylin (peptide)
peptide: K([γGlu-C20 diacid])CNTATCATQRLAEFLRHSSPNFGAIPSSTNVGHETY-NH2
modifications: disulfide 2-7; N-terminus assumed
SMILES: CC[C@H](C)[C@H](NC(=O)[C@H](C)NC(=O)CNC(=O)[C@H](Cc1ccccc1)NC(=O)[C@H](CC(N)=O)NC(=O)[C@@H]1CCCN1C(=O)[C@H](CO)NC(=O)[C@H](CO)NC(=O)[C@H](Cc1c[nH]cn1)NC(=O)[C@H](CCCNC(=N)N)NC(=O)[C@H](CC(C)C)NC(=O)[C@H](Cc1ccccc1)NC(=O)[C@H](CCC(=O)O)NC(=O)[C@H](C)NC(=O)[C@H](CC(C)C)NC(=O)[C@H](CCCNC(=N)N)NC(=O)[C@H](CCC(N)=O)NC(=O)[C@@H](NC(=O)[C@H](C)NC(=O)[C@@H]1CSSC[C@H](NC(=O)[C@@H](N)CCCCNC(=O)CC[C@H](NC(=O)CCCCCCCCCCCCCCCCCCC(=O)O)C(=O)O)C(=O)N[C@@H](CC(N)=O)C(=O)N[C@@H]([C@@H](C)O)C(=O)N[C@@H](C)C(=O)N[C@@H]([C@@H](C)O)C(=O)N1)[C@@H](C)O)C(=O)N1CCC[C@H]1C(=O)N[C@@H](CO)C(=O)N[C@@H](CO)C(=O)N[C@H](C(=O)N[C@@H](CC(N)=O)C(=O)N[C@H](C(=O)NCC(=O)N[C@@H](Cc1c[nH]cn1)C(=O)N[C@@H](CCC(=O)O)C(=O)N[C@H](C(=O)N[C@@H](Cc1ccc(O)cc1)C(N)=O)[C@@H](C)O)C(C)C)[C@@H](C)O
notes: modifications are with respect to human amylin; also called compound 107

IC50: 0.082 nM
B6: N^ε1-[(4S)-4-carboxy-4-(19-carboxynonadecanoylamino)butanoyl]-[His14,Arg17,Pro21,Pro27,Pro31,Pro34]-h-amylin (peptide)
peptide: K([γGlu-C20 diacid])CNTATCATQRLAHFLRHSSPNFGAIPSSTPVGPNTY-NH2
modifications: disulfide 2-7; N-terminus assumed
SMILES: CC[C@H](C)[C@H](NC(=O)[C@H](C)NC(=O)CNC(=O)[C@H](Cc1ccccc1)NC(=O)[C@H](CC(N)=O)NC(=O)[C@@H]1CCCN1C(=O)[C@H](CO)NC(=O)[C@H](CO)NC(=O)[C@H](Cc1c[nH]cn1)NC(=O)[C@H](CCCNC(=N)N)NC(=O)[C@H](CC(C)C)NC(=O)[C@H](Cc1ccccc1)NC(=O)[C@H](Cc1c[nH]cn1)NC(=O)[C@H](C)NC(=O)[C@H](CC(C)C)NC(=O)[C@H](CCCNC(=N)N)NC(=O)[C@H](CCC(N)=O)NC(=O)[C@@H](NC(=O)[C@H](C)NC(=O)[C@@H]1CSSC[C@H](NC(=O)[C@@H](N)CCCCNC(=O)CC[C@H](NC(=O)CCCCCCCCCCCCCCCCCCC(=O)O)C(=O)O)C(=O)N[C@@H](CC(N)=O)C(=O)N[C@@H]([C@@H](C)O)C(=O)N[C@@H](C)C(=O)N[C@@H]([C@@H](C)O)C(=O)N1)[C@@H](C)O)C(=O)N1CCC[C@H]1C(=O)N[C@@H](CO)C(=O)N[C@@H](CO)C(=O)N[C@H](C(=O)N1CCC[C@H]1C(=O)N[C@H](C(=O)NCC(=O)N1CCC[C@H]1C(=O)N[C@@H](CC(N)=O)C(=O)N[C@H](C(=O)N[C@@H](Cc1ccc(O)cc1)C(N)=O)[C@@H](C)O)C(C)C)[C@@H](C)O
notes: as for B1
